One molecule from PMC8449409 (2021) can be followed below.

The target in the assay is T1, β-catenin (Mus musculus, UniProt Q02248).
T1 chain: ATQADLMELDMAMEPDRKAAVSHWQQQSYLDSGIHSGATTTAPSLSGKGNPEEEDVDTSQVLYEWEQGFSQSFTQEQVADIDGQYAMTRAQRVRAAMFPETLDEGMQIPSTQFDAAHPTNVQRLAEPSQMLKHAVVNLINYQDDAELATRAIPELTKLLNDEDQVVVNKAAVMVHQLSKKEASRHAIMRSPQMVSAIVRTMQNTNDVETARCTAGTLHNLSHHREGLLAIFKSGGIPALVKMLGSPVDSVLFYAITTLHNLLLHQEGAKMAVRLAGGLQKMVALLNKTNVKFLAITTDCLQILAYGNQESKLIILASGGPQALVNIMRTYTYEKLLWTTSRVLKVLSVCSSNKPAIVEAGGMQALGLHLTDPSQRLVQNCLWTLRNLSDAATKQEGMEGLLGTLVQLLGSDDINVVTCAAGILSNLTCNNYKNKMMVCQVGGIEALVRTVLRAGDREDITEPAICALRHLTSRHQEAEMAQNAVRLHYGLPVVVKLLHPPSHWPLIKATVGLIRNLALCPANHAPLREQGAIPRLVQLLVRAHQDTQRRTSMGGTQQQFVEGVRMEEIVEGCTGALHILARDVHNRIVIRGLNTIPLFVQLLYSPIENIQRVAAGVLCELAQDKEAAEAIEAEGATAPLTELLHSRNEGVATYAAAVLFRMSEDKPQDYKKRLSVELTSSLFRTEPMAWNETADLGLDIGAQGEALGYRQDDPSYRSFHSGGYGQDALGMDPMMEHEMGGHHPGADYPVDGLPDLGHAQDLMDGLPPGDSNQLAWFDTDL

In general, Kd refers to the constant that tells how readily two partners part at equilibrium. DPTAPPYDSLLVFDYEGSGS [E-cadherin core-binding peptide core-binding region (20 aa)] displayed a Kd of over 1000 nM.
